In patent publication US20210054054A1 (ROCKEFELLER UNIVERSITY, published 2021):

What was measured:
human CD4 receptor [1] = biological target: T1, human CD4 receptor (human, UniProt P01730 26-396); experiment: competition ELISA on CD4, competitor HRP-labeled wild type ibalizumab, pH 7.4
T1 construct: also called human CD4 protein

human CD4 receptor [2] = biological target: T1, human CD4 receptor; experiment: competition ELISA on CD4, competitor HRP-labeled wild type ibalizumab; fold reduced binding vs wt at pH 5.0 over that at pH 7.4

Row | Binder | pH 5.0/pH 7.4 differential (human CD4 receptor [2]) | fold reduced CD4 binding vs wt at pH 7.4 (human CD4 receptor [1]) [fold] | other results
1 | ibalizumab LC S56H variant (antibody, human IgG1, kappa, V domains shown) VH: QVQLQQSGPEVVKPGASVKMSCKASGYTFTSYVIHWVRQKPGQGLDWIGYINPYNDGTDYDEKFKGKATLTSDTSTSTAYMELSSLRSEDTAVYYCAREKDNYATGAWFAYWGQGTLVTVSS VL: DIVMTQSPDSLAVSLGERVTMNCKSSQSLLYSTNQKNYLAWYQQKPGQSPKLLIYWASTREHGVPDRFSGSGSGTDFTLTISSVQAEDVAVYYCQQYYSYRTFGGGTKLEIKR | 0.8 | – | fold vs wt affinity at pH 7.4 (human CD4 receptor [1]): 1.3 fold
2 | ibalizumab light chain S93/Y94 double histidine mutant (antibody, human IgG1, kappa, V domains shown, also called combination of S93 and Y94; S93/Y94 double mutant) VH: QVQLQQSGPEVVKPGASVKMSCKASGYTFTSYVIHWVRQKPGQGLDWIGYINPYNDGTDYDEKFKGKATLTSDTSTSTAYMELSSLRSEDTAVYYCAREKDNYATGAWFAYWGQGTLVTVSS VL: DIVMTQSPDSLAVSLGERVTMNCKSSQSLLYSTNQKNYLAWYQQKPGQSPKLLIYWASTRESGVPDRFSGSGSGTDFTLTISSVQAEDVAVYYCQQYYHHRTFGGGTKLEIKR | 3 | – | –
3 | ibalizumab light chain triple Y92H/S93H/Y94H variant (antibody, human IgG1, kappa, V domains shown) VH: QVQLQQSGPEVVKPGASVKMSCKASGYTFTSYVIHWVRQKPGQGLDWIGYINPYNDGTDYDEKFKGKATLTSDTSTSTAYMELSSLRSEDTAVYYCAREKDNYATGAWFAYWGQGTLVTVSS VL: DIVMTQSPDSLAVSLGERVTMNCKSSQSLLYSTNQKNYLAWYQQKPGQSPKLLIYWASTRESGVPDRFSGSGSGTDFTLTISSVQAEDVAVYYCQQYHHHRTFGGGTKLEIKR | 3.4 | – | –
4 | ibalizumab variant with a histidine mutation at residue S93 in the light chain (antibody, human IgG1, kappa, V domains shown, also called S93H) VH: QVQLQQSGPEVVKPGASVKMSCKASGYTFTSYVIHWVRQKPGQGLDWIGYINPYNDGTDYDEKFKGKATLTSDTSTSTAYMELSSLRSEDTAVYYCAREKDNYATGAWFAYWGQGTLVTVSS VL: DIVMTQSPDSLAVSLGERVTMNCKSSQSLLYSTNQKNYLAWYQQKPGQSPKLLIYWASTRESGVPDRFSGSGSGTDFTLTISSVQAEDVAVYYCQQYYHYRTFGGGTKLEIKR | – | < 3 | –
5 | ibalizumab variant with a histidine mutation at residue Y92 in the light chain (antibody, human IgG1, kappa, V domains shown, also called Y92H) VH: QVQLQQSGPEVVKPGASVKMSCKASGYTFTSYVIHWVRQKPGQGLDWIGYINPYNDGTDYDEKFKGKATLTSDTSTSTAYMELSSLRSEDTAVYYCAREKDNYATGAWFAYWGQGTLVTVSS VL: DIVMTQSPDSLAVSLGERVTMNCKSSQSLLYSTNQKNYLAWYQQKPGQSPKLLIYWASTRESGVPDRFSGSGSGTDFTLTISSVQAEDVAVYYCQQYHSYRTFGGGTKLEIKR | – | < 3 | fold loss of affinity vs wt at pH 7.4 (human CD4 receptor [1]): > 2.6 fold
6 | ibalizumab variant with a histidine mutation at residue Y94 in the light chain (antibody, human IgG1, kappa, V domains shown, also called Y94H; LC Y94) VH: QVQLQQSGPEVVKPGASVKMSCKASGYTFTSYVIHWVRQKPGQGLDWIGYINPYNDGTDYDEKFKGKATLTSDTSTSTAYMELSSLRSEDTAVYYCAREKDNYATGAWFAYWGQGTLVTVSS VL: DIVMTQSPDSLAVSLGERVTMNCKSSQSLLYSTNQKNYLAWYQQKPGQSPKLLIYWASTRESGVPDRFSGSGSGTDFTLTISSVQAEDVAVYYCQQYYSHRTFGGGTKLEIKR | – | < 3 | –
